Measurements reported in patent EP1237001A1, “SCREENING METHOD” (Takeda Chemical Industries, Ltd., priority 1999, dated 2001).

Columns and labels:
FM-3 [1] = biological target: T1, FM-3 (Homo sapiens, UniProt Q9HB89); test: site sensor assay of cell-stimulating activity (extracellular acidification rate); type: cell-based; design: expressed in transfected cells; settings: FM-3-expressing CHO cells versus mock CHO cells; exposure for 7 minutes and 2 seconds; 3 cycles before exposure set as 100 %; Fig. 1
T1 sequence (Q9HB89 24-426 limits assumed): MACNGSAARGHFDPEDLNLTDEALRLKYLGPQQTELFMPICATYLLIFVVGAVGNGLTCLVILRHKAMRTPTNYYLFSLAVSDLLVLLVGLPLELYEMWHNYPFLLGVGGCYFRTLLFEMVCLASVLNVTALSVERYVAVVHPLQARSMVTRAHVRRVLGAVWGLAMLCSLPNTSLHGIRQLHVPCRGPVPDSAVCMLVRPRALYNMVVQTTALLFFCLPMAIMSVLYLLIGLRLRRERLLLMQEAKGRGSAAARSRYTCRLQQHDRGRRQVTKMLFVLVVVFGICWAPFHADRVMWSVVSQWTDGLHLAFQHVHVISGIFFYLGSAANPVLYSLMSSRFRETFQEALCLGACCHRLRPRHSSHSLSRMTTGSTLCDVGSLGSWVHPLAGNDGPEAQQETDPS
Description: Pig Neuromedin U-8 at the concentration indicated in FIG. 1 was added to FM-3-expressing CHO cells (●) and mock CHO cells (○) for 7 minutes and 2 seconds in the site sensor assay. The maximum value of acidification rate in the reaction was plotted.
FM-3-expressing CHO cells and mock CHO cells, which were cultured in a cell-cultured container, were digested with trypsin and dissociated. The numbers of cells are counted. Then, the cells were inoculated in the capsules for site sensor (2.7 x 10^5 cells/capsule). After incubating them overnight, the capsules containing the cells were transferred to the sensor chamber for measurement, and then mounted to the workstation of the site sensor. The portion containing the cells was refluxed with low-buffered RMPI medium supplemented with 0.1% bovine serum albumin, and it was left still until the acidification rate became stable. The measurement of the acidification rate was made during pumping cycle of ON for 80 seconds and OFF for 40 seconds(2 minutes to one cycle). A rate of change in extracellular pH from 8 to 30 seconds after the pumping off was calculated as an acidification rate with the site sensor.
Pig Neuromedin-8 (BACHEM, H-5505, SEQ ID NO:5) was dissolved in distilled water at the concentration of 10mM, and then the gradually diluted solutions were prepared with low buffered RPMI medium containing 0.1% BSA. […]

FM-3 [2] = biological target: T2, FM-3 (Homo sapiens, UniProt Q9HB89); settings: free intracellular calcium ion release measured as an index; Tan et al.; cited from earlier work
T2 sequence (Q9HB89 1-426): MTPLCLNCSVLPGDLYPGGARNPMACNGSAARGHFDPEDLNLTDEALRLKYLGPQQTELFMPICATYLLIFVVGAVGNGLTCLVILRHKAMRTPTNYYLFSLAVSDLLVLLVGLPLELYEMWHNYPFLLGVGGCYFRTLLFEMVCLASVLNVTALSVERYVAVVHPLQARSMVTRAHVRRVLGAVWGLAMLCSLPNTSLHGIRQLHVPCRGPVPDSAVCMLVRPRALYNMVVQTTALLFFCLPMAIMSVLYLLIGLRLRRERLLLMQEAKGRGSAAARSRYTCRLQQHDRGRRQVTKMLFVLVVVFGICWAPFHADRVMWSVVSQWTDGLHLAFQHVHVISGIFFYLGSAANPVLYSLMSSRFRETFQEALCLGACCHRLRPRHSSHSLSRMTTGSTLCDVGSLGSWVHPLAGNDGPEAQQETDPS

FM-3 [3] = biological target: T1, FM-3; settings: labeled ligand; cells confirmed to express FM-3 on the cell membrane; Tan et al., Genomics 52, 223-229, 1998; cited from earlier work

Substance	activation of FM-3 (FM-3 [2])	other results
Pig Neuromedin-8: pig Neuromedin U-8, peptide of 8 amino acid residues, BACHEM, H-5505, SEQ ID NO:5	–	cell-stimulating activity (acidification rate) (FM-3 [1]): detected in a does-dependent manner and specific to FM-3-expressing CHO cells
VIP: vasoactive intestinal peptide, examined for activation of FM-3	not detected	–
somatostatin: peptide examined for activation of FM-3	not detected	–
Neurotensin: labeled Neurotensin, peptide ligand of the Neurotensin receptor	–	binding with cells expressing FM-3 (FM-3 [3]): did not bind
calcitonin: peptide examined for activation of FM-3	not detected	–
endothelin	not detected	–
galanin: peptide examined for activation of FM-3	not detected	–
thyrotropin releasing hormone	not detected	–
growth hormone releasing hormone: peptide examined for activation of FM-3	not detected	–
